“And” between values parts separate entries of the source, which are not always exact repeats. Equal entries are not always repeated.

The labels stand for the following.
B2: photosynthetic GAPDH B-subunit from spinach (natural protein, UniProt P12860 84-451, looked up)
chain: KLKVAINGFGRIGRNFLRCWHGRKDSPLDVVVVNDSGGVKSATHLLKYDSILGTFKADVKIIDNETFSIDGKPIKVVSNRDPLKLPWAELGIDIVIEGTGVFVDGPGAGKHIQAGAKKVIITAPAKGSDIPTYVVGVNEKDYGHDVANIISNASCTTNCLAPFVKVLDEELGIVKGTMTTTHSYTGDQRLLDASHRDLRRARAAALNIVPTSTGAAKAVSLVLPQLKGKLNGIALRVPTPNVSVVDLVVNIEKVGVTAEDVNNAFRKAAAGPLKGVLDVCDIPLVSVDFRCSDFSSTIDSSLTMVMGGDMVKVVAWYDNEWGYSQRVVDLADLVANKWPGLEGSVASGDPLEDFCKDNPADEECKLYE

Data set [1] has as its target insect Toll receptor ectodomain (insect (species not stated)) (UniProt P08953). Briefly: biophysical and cellular analysis.
Data set [2] concerns the molecule itself. As to the kind of experiment: SEC-SAXS + cryo-EM structure.
The data set “cryo-EM structure” deals with the molecule itself. As to the kind of experiment: cryo-EM structure.
The target in data set [3] is B2. Briefly: cryo-EM structure.

Chain of insect Toll receptor ectodomain (insect (species not stated)) (P08953 28-807): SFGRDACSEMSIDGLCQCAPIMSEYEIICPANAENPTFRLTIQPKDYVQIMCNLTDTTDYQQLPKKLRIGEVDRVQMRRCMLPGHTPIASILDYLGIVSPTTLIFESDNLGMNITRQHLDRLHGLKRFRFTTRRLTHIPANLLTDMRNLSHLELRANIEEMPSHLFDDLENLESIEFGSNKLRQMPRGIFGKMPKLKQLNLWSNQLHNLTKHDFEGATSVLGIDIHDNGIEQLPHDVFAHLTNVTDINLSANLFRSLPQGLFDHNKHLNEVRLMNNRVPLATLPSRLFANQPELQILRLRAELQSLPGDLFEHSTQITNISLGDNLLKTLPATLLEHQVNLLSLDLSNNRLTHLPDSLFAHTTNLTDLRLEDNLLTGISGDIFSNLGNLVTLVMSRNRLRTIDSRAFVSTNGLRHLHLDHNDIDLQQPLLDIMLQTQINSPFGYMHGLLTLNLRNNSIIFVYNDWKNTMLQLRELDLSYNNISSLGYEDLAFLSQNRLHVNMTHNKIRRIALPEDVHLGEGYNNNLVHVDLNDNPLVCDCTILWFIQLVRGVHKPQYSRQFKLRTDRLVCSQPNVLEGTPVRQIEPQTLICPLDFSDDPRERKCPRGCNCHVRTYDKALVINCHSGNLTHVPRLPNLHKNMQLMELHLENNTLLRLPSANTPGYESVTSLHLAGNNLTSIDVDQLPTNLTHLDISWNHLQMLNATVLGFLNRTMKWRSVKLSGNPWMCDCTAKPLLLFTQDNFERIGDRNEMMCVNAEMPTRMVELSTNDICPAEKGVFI

Regarding “insect cytokine ligand Spatzle (from UniProt P48607 26-326)”, in data set [1], the stoichiometry N (Toll per Spatzle (2:2)) was 1.

B1: photosynthetic AB-GAPDH, A2B2 hetero-tetramer (glyceraldehyde 3-phosphate dehydrogenase) from spinach (complex)
chain 1: KLKVAINGFGRIGRNFLRCWHGRKDSPLDVVVINDTGGVKQASHLLKYDSILGTFDADVKTAGDSAISVDGKVIKVVSDRNPVNLPWGDMGIDLVIEGTGVFVDRDGAGKHLQAGAKKVLITAPGKGDIPTYVVGVNEEGYTHADTIISNASCTTNCLAPFVKVLDQKFGIIKGTMTTTHSYTGDQRLLDASHRDLRRARAACLNIVPTSTGAAKAVALVLPNLKGKLNGIALRVPTPNVSVVDLVVQVSKKTFAEEVNAAFRESADNELKGILSVCDEPLVSIDFRCTDVSSTIDSSLTMVMGDDMVKVIAWYDNEWGYSQRVVDLADIVANKWQ
chain 2: KLKVAINGFGRIGRNFLRCWHGRKDSPLDVVVVNDSGGVKSATHLLKYDSILGTFKADVKIIDNETFSIDGKPIKVVSNRDPLKLPWAELGIDIVIEGTGVFVDGPGAGKHIQAGAKKVIITAPAKGSDIPTYVVGVNEKDYGHDVANIISNASCTTNCLAPFVKVLDEELGIVKGTMTTTHSYTGDQRLLDASHRDLRRARAAALNIVPTSTGAAKAVSLVLPQLKGKLNGIALRVPTPNVSVVDLVVNIEKVGVTAEDVNNAFRKAAAGPLKGVLDVCDIPLVSVDFRCSDFSSTIDSSLTMVMGGDMVKVVAWYDNEWGYSQRVVDLADLVANKWPGLEGSVASGDPLEDFCKDNPADEECKLYE
Consider B1, for which, in data set [2], the “stoichiometry N” value is 2 A2B2 tetramers per oligomer and 4 A2B2 tetramers per oligomer and 5 A2B2 tetramers per oligomer.

For B2, the binding result in “cryo-EM structure” is reported as “binds”.

B3: photosynthetic GAPDH A-subunit from spinach (natural protein, UniProt P19866 66-401, looked up)
chain: KLKVAINGFGRIGRNFLRCWHGRKDSPLDVVVINDTGGVKQASHLLKYDSILGTFDADVKTAGDSAISVDGKVIKVVSDRNPVNLPWGDMGIDLVIEGTGVFVDRDGAGKHLQAGAKKVLITAPGKGDIPTYVVGVNEEGYTHADTIISNASCTTNCLAPFVKVLDQKFGIIKGTMTTTHSYTGDQRLLDASHRDLRRARAACLNIVPTSTGAAKAVALVLPNLKGKLNGIALRVPTPNVSVVDLVVQVSKKTFAEEVNAAFRESADNELKGILSVCDEPLVSIDFRCTDVSSTIDSSLTMVMGDDMVKVIAWYDNEWGYSQRVVDLADIVANKWQ
Consider B3, for which the binding result in data set [3] is on record as “binds”.

Source of the values: PMC8580805 (Biophysical Reviews, 2021).
